{"source": "patent US20030143656A1", "about": "(published 2003)", "binders": {"B1": {"name": "GST-PDK1 K115A (enzyme, not shown: a dimerising Fc or GST; small tags and cut ends)", "chain": "MARTTSQLYDAVPIQSSVVLCSCPSPSMVRTQTESSTPPGIPGGSRQGPAMDGTAAEPRPGAGSLQHAQPPPQPRKKRPEDFKFGKILGEGSFSTVVLARELATSREYAIKILEARHIIKENKVPYVTRERDVMSRLDHPFFVKLYFTFQDDEKLYFGLSYAKNGELLKYIRKIGSFDETCTRFYTAEIVSALEYLHGKGIIHRDLKPENILLNEDMHIQITDFGTAKVLSPESKQARANSFVGTAQYVSPELLTEKSACKSSDLWALGCIIYQLVAGLPPFRAGNEYLIFQKIIKLEYDFPEKFFPKARDLVEKLLVLDATKRLGCEEMEGYGPLKAHPFFESVTWENLHQQTPPKLTAYLPAMSEDDEDCYGNYDNLLSQFGCMQVSSSSSSHSLSASDTGLPQRSGSNIEQYIHDLDSNSFELDLQFSEDEKRLLLEKQAGGNPWHQFVENNLILKMGPVDKRKGLFARRRQLLLTEGPHLYYVDPVNKVLKGEIPWSQELRPEAKNFKTFFVHTPNRTYYLMDPSGNAHKWCRKIQEVWRQRYQSHPDAAVQ"}, "B2": {"name": "GST-PDK1 Q150A (enzyme, human, UniProt O15530 1-556, looked up)", "chain": "B1 chain with A115K, Q150A", "notes": "range 1-556; not shown: N-terminal GST tag, pEBG2T vector"}, "B3": {"name": "GST-PDK1 L155A (enzyme, human, UniProt O15530 1-556, looked up)", "chain": "B1 chain with A115K, L155A", "notes": "as for B2"}, "B4": {"name": "PIFtide (peptide)", "peptide": "REPRILSEEEQEMFRDFDYIADWC"}}, "key": {"PIFtide [1]": {"biological_target": "B4", "assay": "method not stated (reference mark lost)"}, "PIFtide [2]": {"biological_target": "B4", "assay": "method not stated (unpublished data)"}, "GST-PDK1 (wild type)": {"biological_target": "T1, GST-PDK1 (wild type) (human, UniProt O15530 1-556)", "T1 sequence (looked up)": "B1 chain with A115K", "assay": "cell-based or functional assay"}, "GST-PDK1 K115A": {"biological_target": "B1", "assay": "cell-based or functional assay"}, "GST-PDK1 Q150A": {"biological_target": "B2", "assay": "cell-based or functional assay"}, "GST-PDK1 L155A": {"biological_target": "B3", "assay": "cell-based or functional assay"}}, "note": "Changes are numbered by the printed parent chain. Numbers in names are those of the source.", "data": [{"binder": "B1", "values": [{"measurement": "fold decrease in affinity for PIFtide", "setting": "PIFtide [1]", "result": "~10", "unit": "fold"}]}, {"binder": "B2", "values": [{"measurement": "fold decrease in affinity for PIFtide", "setting": "PIFtide [1]", "result": "~10", "unit": "fold"}]}, {"binder": "B3", "values": [{"measurement": "fold decrease in affinity for PIFtide", "setting": "PIFtide [2]", "result": "~10", "unit": "fold"}]}, {"binder": "REPRILSEEEQEMFRDFAYLADWC", "note": "[D978A-PIFtide]", "values": [{"measurement": "fold decrease in activation of PDK1 towards T308tide, against wild type PIFtide", "setting": "GST-PDK1 (wild type)", "result": 8, "unit": "fold"}]}, {"binder": "B4", "values": [{"measurement": "increase of PDK1 activity towards T308tide", "setting": "GST-PDK1 (wild type)", "result": "≤ 4", "unit": "fold"}, {"measurement": "increase of TM50 (heat inactivation of GST-PDK1)", "setting": "GST-PDK1 (wild type)", "result": "8 to 10", "unit": "°C"}, {"measurement": "inhibition by 2 µM PIFtide of the activation of S6K1[T412E] by wild type PDK1", "setting": "GST-PDK1 (wild type)", "result": "> 20", "unit": "fold"}, {"measurement": "inhibition by 2 µM PIFtide of the activation of S6K1-T2[T412E] and SGK1[T422D] by the PDK1 mutant", "setting": "GST-PDK1 K115A", "result": "~50", "unit": "%"}, {"measurement": "inhibition by 35 µM PIFtide of the activation of S6K1-T2[T412E] and SGK1[T422D] by the PDK1 mutant", "setting": "GST-PDK1 K115A", "result": "> 95", "unit": "%"}, {"measurement": "inhibition by 2 µM PIFtide of the activation of S6K1-T2[T412E] and SGK1[T422D] by the PDK1 mutant", "setting": "GST-PDK1 Q150A", "result": "~50", "unit": "%"}, {"measurement": "inhibition by 35 µM PIFtide of the activation of S6K1-T2[T412E] and SGK1[T422D] by the PDK1 mutant", "setting": "GST-PDK1 Q150A", "result": "> 95", "unit": "%"}, {"measurement": "stimulation of the PDK1 mutant towards T308tide by PIF", "setting": "GST-PDK1 Q150A", "result": "~2", "unit": "fold"}, {"measurement": "inhibition by 2 µM PIFtide of the activation of S6K1-T2[T412E] and SGK1[T422D] by the PDK1 mutant", "setting": "GST-PDK1 L155A", "result": "~50", "unit": "%"}, {"measurement": "inhibition by 35 µM PIFtide of the activation of S6K1-T2[T412E] and SGK1[T422D] by the PDK1 mutant", "setting": "GST-PDK1 L155A", "result": "> 95", "unit": "%"}]}]}
